Here are results for 9 molecules from patent US7119077B1, “Multimeric forms of members of the steroid/thyroid superfamily of receptors with the ultraspiracle receptor” (The Salk Institute for Biological Studies, priority 1990, dated 2006).

The target in one data set is EcR/usp complex (Drosophila melanogaster, UniProt P20153+P34021). The note with it: cold oligonucleotide competitor, in vitro translated EcR and usp.
A further data set has as its target T1, usp/TRβ heterodimer (Drosophila melanogaster / Homo sapiens, UniProt P20153;P10828 P20153:1-508,P10828:1-461).
T1 sequence 1: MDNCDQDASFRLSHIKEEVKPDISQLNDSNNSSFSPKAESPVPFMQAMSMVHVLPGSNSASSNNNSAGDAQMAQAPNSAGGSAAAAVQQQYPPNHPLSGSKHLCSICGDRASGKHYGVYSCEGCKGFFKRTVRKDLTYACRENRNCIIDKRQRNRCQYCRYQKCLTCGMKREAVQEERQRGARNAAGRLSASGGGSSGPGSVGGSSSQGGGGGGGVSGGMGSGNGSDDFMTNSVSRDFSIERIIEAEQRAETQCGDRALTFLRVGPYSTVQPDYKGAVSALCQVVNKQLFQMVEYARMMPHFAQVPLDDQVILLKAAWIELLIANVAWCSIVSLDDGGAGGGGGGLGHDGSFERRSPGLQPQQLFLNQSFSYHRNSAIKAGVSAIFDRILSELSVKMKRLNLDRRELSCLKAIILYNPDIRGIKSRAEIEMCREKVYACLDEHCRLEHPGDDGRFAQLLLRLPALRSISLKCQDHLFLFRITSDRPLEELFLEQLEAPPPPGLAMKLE
T1 sequence 2: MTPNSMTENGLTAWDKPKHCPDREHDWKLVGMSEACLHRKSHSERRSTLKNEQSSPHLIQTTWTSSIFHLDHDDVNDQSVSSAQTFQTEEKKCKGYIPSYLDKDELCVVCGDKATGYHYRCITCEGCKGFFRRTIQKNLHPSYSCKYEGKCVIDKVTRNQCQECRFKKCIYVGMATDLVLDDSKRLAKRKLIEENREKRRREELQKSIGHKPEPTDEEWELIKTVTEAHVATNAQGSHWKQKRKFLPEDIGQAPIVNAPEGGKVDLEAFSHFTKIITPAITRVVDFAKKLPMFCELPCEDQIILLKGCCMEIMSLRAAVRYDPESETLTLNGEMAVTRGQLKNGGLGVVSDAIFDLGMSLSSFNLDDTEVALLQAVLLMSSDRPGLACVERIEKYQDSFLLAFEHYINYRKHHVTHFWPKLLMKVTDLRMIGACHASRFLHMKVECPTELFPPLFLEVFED
In words: EMSA; usp dependent; usp antibody supershift. The note with it: label: 32P. The method, then: (§1) For gel mobility shift assay, proteins were incubated with binding buffer, which contained 100 mM KCl, 7.5% glycerol, 20 mM HEPES pH 7.5, 2 mM DTT and 0.1% NP-40, on ice for 20 minutes in the presence of 2 μg of nonspecific competitor poly dI-dC and other oligo competitors. Then approximately 1 ng of ^32P-dCTP probe, which was labelled to specific activity about 1-5×10^8 cpm/μg by fill-in reaction with Klenow fragments, was added to the reaction and incubated at room temperature for 20 minutes. Antiserum or preimmune serum was added 10 minutes after the probe was added. The reaction was then loaded into 5% non-denaturing polyacrylamide gel in 0.5×TBE running buffer [1×TBE comprises 0.089 M Tris borate, 0.089 M boric acid and 0.002 M EDTA]. After electrophoresis, the gel was dried for autoradiography.
Using in vitro translated usp protein, interaction of usp with three mammalian nuclear receptors (TRβ, VDR and PPAR) was tested in gel mobility shift assays with the appropriate response element for each of the three receptors as the probes.

The target of the next data set is T2, usp/RARα heterodimer (Drosophila melanogaster / Homo sapiens, UniProt P20153;P10276 P20153:1-508,P10276:1-462).
T2 sequence 1: T1 sequence 1
T2 sequence 2: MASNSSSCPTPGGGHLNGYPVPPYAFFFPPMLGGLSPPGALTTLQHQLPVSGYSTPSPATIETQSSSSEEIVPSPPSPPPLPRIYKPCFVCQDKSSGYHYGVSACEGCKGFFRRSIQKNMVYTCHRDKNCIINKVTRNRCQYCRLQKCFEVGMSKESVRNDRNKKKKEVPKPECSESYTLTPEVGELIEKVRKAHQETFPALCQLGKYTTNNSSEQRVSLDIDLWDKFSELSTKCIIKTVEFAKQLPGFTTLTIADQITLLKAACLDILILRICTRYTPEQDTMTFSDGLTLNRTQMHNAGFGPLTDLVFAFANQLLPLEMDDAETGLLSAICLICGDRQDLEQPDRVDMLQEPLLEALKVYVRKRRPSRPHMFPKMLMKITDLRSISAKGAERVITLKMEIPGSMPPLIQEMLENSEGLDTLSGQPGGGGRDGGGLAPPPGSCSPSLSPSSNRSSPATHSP
Put plainly: EMSA; prominent complex; affected by usp and RARα antibodies. The note with it: label: 32P. The method, then:
as §1
(§2) Neither in vitro translated usp alone, nor RARα alone, bound to a βRARE probe. However, when the two proteins were incubated together, a prominent retarded complex appeared. This complex comigrated with the complex detected in the RAR and cell extract mixing experiments. […] Either the affinity purified usp antibody, or the RARα, specifically affected the protein/ DNA complex, while preimmune sera had no effect. […]

For data set [1], the target named is T3, ultraspiracle (usp) (Drosophila melanogaster, UniProt P20153 SEQ:1-513).
T3 sequence: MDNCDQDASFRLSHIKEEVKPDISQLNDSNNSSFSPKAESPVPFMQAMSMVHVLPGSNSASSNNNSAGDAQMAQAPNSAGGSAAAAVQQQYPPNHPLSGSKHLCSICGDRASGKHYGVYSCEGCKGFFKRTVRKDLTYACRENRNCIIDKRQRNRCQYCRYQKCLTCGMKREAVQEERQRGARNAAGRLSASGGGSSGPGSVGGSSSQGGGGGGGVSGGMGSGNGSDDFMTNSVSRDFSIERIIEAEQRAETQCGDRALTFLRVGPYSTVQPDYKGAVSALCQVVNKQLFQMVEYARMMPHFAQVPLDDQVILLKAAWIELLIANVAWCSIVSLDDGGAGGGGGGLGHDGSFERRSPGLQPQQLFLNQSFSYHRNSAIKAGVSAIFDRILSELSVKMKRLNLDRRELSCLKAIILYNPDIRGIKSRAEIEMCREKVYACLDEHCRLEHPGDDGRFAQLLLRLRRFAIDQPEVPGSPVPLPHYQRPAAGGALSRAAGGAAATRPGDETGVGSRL
In words: EMSA; usp alone. Conditions: label: 32P. Here is the method: as §1, §2

The next data set addresses T4, RARα (human) (Homo sapiens, UniProt P10276 P10276:1-462).
T4 sequence: T2 sequence 2
Put plainly: EMSA; RARα alone. Conditions: label: 32P. The method, then: as §1
In gel mobility shift assays using a ^32P-labelled natural RAR response element—βRARE [see SEQ ID NO:15, see also de The et al., in Nature Vol. 343:177–180 (1990); and Sucov et al., in Proc. Natl. Acad. Sci. USA Vol. 87:5392–5398 (1990)] as the probe, in vitro translated RARα was incubated with probe under binding conditions either alone or with 2 µg of S2 extracts or embryo extracts.
Neither in vitro translated usp alone, nor RARα alone, bound to a βRARE probe. […] This complex comigrated with the complex detected in the RAR and cell extract mixing experiments. […]

In data set [2] the target is T5, EcR/usp heterodimer (Drosophila melanogaster, UniProt P34021;P20153 P34021:1-878,P20153:1-508).
T5 sequence 1: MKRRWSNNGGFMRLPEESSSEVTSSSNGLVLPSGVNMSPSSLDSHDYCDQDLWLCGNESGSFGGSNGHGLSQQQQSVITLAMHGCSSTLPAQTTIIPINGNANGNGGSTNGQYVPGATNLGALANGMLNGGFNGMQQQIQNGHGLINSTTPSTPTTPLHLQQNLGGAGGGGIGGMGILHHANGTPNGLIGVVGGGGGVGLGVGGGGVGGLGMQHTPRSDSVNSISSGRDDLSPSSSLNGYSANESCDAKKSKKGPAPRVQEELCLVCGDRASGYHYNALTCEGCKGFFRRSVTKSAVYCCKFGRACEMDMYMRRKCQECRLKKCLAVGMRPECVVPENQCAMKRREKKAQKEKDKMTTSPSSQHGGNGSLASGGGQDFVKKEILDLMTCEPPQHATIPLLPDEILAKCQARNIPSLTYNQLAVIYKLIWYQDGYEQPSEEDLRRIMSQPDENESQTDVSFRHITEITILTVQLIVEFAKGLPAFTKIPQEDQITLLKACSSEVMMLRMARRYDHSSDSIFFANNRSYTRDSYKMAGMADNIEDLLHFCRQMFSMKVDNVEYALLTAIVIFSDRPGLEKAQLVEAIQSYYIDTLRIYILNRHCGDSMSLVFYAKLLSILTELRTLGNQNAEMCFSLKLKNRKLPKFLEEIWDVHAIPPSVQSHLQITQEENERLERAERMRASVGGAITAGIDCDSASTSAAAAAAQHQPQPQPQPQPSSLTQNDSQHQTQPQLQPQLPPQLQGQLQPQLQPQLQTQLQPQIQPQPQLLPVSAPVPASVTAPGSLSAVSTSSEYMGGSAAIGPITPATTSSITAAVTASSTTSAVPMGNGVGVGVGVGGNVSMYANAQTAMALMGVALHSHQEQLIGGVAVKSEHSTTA
T5 sequence 2: T1 sequence 1
In words: competition; effective competitor of hsp27-EcRE binding.

The target of data set [3] is T5, EcR/usp heterodimer. Put plainly: competition; does not compete hsp27-EcRE binding.
The target of data set [4] is T3, ultraspiracle (usp). Put plainly: EMSA; usp alone. The note with it: label: 32P. The method, then:
as §1
(§3) The EcR and usp interaction was also tested under more defined conditions. In vitro translated EcR and usp were prepared and their interaction was assayed by gel mobility shift assays. […] To test whether usp can complement EcR DNA binding, as it does with mammalian receptors, both usp and EcR were co-incubated in the reaction. In the presence of both receptors, a novel high affinity DNA binding complex appeared. […] This complex is proposed to be a heterodimeric species, which is consistent with the observation of other usp heterodimers.
The source holds these as a separate data set.

Data set [5] addresses T5, EcR/usp heterodimer. Put plainly: EMSA; high affinity complex; usp antibody supershift. Conditions: label: 32P. The method, then:
as §1, §3

In another data set the target is T6, Ecdysone receptor (EcR) (Drosophila melanogaster, UniProt P34021 P34021:1-878).
T6 sequence: T5 sequence 1
In words: EMSA; EcR alone. The note with it: label: 32P. Here is the method: as §1, §3

The target of data set [6] is T5, EcR/usp heterodimer. In words: competition; competes as effectively as hsp27-EcRE.

Experimental for EcR/usp complex: To generate protein in vitro, suitable plasmids for human (h)RARα, hTRB, hVDR, rat PPAR, Drosophila (d)usp and dEcR were linearized with restriction enzyme 3′ of the termination codon. The linearized templates were used for in vitro transcription and then translation using rabbit reticulocyte lysate according to manufacturer's instruction (Promega). […] Schneider cell extracts were prepared following the procedures in Damm et al., Nature Vol. 339:593–597 (1989) and Umesono et al. (1991), supra. The extraction buffer contained 0.4 M KCl in 20 mM HEPES pH 7.5, 20% glycerol, 2 mM DTT and 1 mM PMSF.
For gel mobility shift assay, proteins were incubated with binding buffer, which contained 100 mM KCl, 7.5% glycerol, 20 mM HEPES pH 7.5, 2 mM DTT and 0.1% NP-40, on ice for 20 minutes in the presence of 2 μg of nonspecific competitor poly dI-dC and other oligo competitors. Then approximately 1 ng of ^32P-dCTP probe, which was labelled to specific activity about 1–5×10^8 cpm/μg by fill-in reaction with Klenow fragments, was added to the reaction and incubated at room temperature for 20 minutes. […] The reaction was then loaded into 5% non-denaturing polyacrylamide gel in 0.5×TBE running buffer [1×TBE comprises 0.089 M Tris borate, 0.089 M boric acid and 0.002 M EDTA]. After electrophoresis, the gel was dried for autoradiography.
The ability of EcR/usp complex to recognize this EcRE was examined.

“15N-EcRE: back mutation of hsp27-EcRE which regenerated the palindrome motif (DNA ATGAAGTGCATTGAACCCGCTCGA; further chemistry not given here)”: the “competition of EcR/usp binding to hsp27-EcRE” value (shortened to “competition of EcR/usp binding”) in the data set with EcR/usp complex is “effective competition”.

With “Eip28/29-EcRE: EcRE derived from the Drosophila Eip28/29 gene, composite element with direct repeat and degenerated palindromic motif (DNA TAAAGGATCTTGACCCCAATGAACTTCTTA; further chemistry not given here)”, in the data set with EcR/usp complex, the “competition of EcR/usp binding” value is “can effectively compete”.

Take “11N-EcRE: mutant hsp27-EcRE, two nucleotides at the ends of the palindrome and the flanking sequence changed (DNA ATGCTGTGCATTGAACGTGCTCGA; further chemistry not given here)”: in the data set with EcR/usp complex, the “competition of EcR/usp binding” value was “did not compete”.

B1: MLV-TRE (DR4) (dsDNA)
DNA 1: GGGTCATTTCAGGTCC
DNA 2: GGACCTGAAATGACCC
Regarding B1, the binding result in the data set with usp/TRβ heterodimer is reported as “binds”.

B2: βRARE (DR5) (dsDNA)
DNA 1: GGTTCACCGAAAGTTCA
DNA 2: TGAACTTTCGGTGAACC
Consider B2, for which the binding result with usp/RARα heterodimer is “binds”; in the data set with ultraspiracle (usp) [1], “no binding”; in the data set with RARα (human), “no binding”.

B3: 15N-EcRE (dsDNA)
DNA 1: ATGAAGTGCATTGAACCCGCTCGA
DNA 2: TCGAGCGGGTTCAATGCACTTCAT
With B3, the binding result in the data set with EcR/usp heterodimer [2] is “binds”.

B4: 11N-EcRE (dsDNA)
DNA 1: ATGCTGTGCATTGAACGTGCTCGA
DNA 2: TCGAGCACGTTCAATGCACAGCAT
Consider B4, for which the binding result with EcR/usp heterodimer [3] is listed as “no binding”.

B5: hsp27-EcRE (dsDNA)
DNA 1: ATTGGACAAGTGCATTGAACCCTTGTCTCT
DNA 2: AGAGACAAGGGTTCAATGCACTTGTCCAAT
In the case of B5, the binding result with ultraspiracle (usp) [4] is recorded as “no binding”; in the data set with EcR/usp heterodimer [5] it was “binds”; in the data set with Ecdysone receptor (EcR) it was “no binding”.

B6: Eip28/29-EcRE (dsDNA)
DNA 1: TAAAGGATCTTGACCCCAATGAACTTCTTA
DNA 2: TAAGAAGTTCATTGGGGTCAAGATCCTTTA
Regarding B6, in the data set with EcR/usp heterodimer [6], the binding result is reported as “binds”.
